Experimental data: paper PMC5577263

Target: recombinant mouse α-synuclein amyloid fibrils (mouse) (UniProt O55042)
Assay: SPR

In the case of “recombinant full-length mouse PrP MoPrP(23-231) (from UniProt P04925 23-231) (natural protein)”, the KD, first of two (ratio of one of two koff values to kon) is reported as 3.1 nM and the KD, second of two (ratio of one of two koff values to kon) is reported as 36.5 nM.
